Columns and labels:
[1] = target: anti-A2M antibody (MAB) labeled with a donor fluorophore; assay: TR-FRET competition against acceptor-labeled A2M; A2M calibrator 200 ug/mL; mean of 4 replicates (FIG. 2G)
[2] = target: anti-A2M antibody (MAB) labeled with a donor fluorophore; assay: TR-FRET competition against acceptor-labeled A2M; A2M calibrator 500 ug/mL; mean of 4 replicates (FIG. 2G)
[3] = target: anti-A2M antibody (MAB) labeled with a donor fluorophore; assay: TR-FRET competition against acceptor-labeled A2M; A2M calibrator 1000 ug/mL; mean of 4 replicates (FIG. 2G)
[4] = target: anti-A2M antibody (MAB) labeled with a donor fluorophore; assay: TR-FRET competition against acceptor-labeled A2M; A2M calibrator 2000 ug/mL; mean of 4 replicates (FIG. 2G)
[5] = target: anti-A2M antibody (MAB) labeled with a donor fluorophore; assay: TR-FRET competition against acceptor-labeled A2M; A2M calibrator 4000 ug/mL; mean of 4 replicates (FIG. 2G)
[6] = target: anti-A2M antibody (MAB) labeled with a donor fluorophore; assay: TR-FRET competition against acceptor-labeled A2M; A2M calibrator 0 ug/mL, reference; mean of 4 replicates (FIG. 2G)
[7] = target: anti-A2M antibody (MAB) labeled with a donor fluorophore; assay: TR-FRET competition against acceptor-labeled A2M in whole blood, singleplex calibrators, 5 min; A2M 200 ug/mL (FIG. 2I)
[8] = target: anti-A2M antibody (MAB) labeled with a donor fluorophore; assay: TR-FRET competition against acceptor-labeled A2M in whole blood, singleplex calibrators, 5 min; A2M 500 ug/mL (FIG. 2I)
[9] = target: anti-A2M antibody (MAB) labeled with a donor fluorophore; assay: TR-FRET competition against acceptor-labeled A2M in whole blood, singleplex calibrators, 30 min; A2M 200 ug/mL (FIG. 2I)
[10] = target: anti-A2M antibody (MAB) labeled with a donor fluorophore; assay: TR-FRET competition against acceptor-labeled A2M in whole blood, singleplex calibrators, 30 min; A2M 500 ug/mL (FIG. 2I)
[11] = target: anti-A2M antibody (MAB) labeled with a donor fluorophore; assay: TR-FRET competition against acceptor-labeled A2M in whole blood, singleplex calibrators, 5 min; A2M 1000 ug/mL (FIG. 2I)
[12] = target: anti-A2M antibody (MAB) labeled with a donor fluorophore; assay: TR-FRET competition against acceptor-labeled A2M in whole blood, singleplex calibrators, 5 min; A2M 2000 ug/mL (FIG. 2I)
[13] = target: anti-A2M antibody (MAB) labeled with a donor fluorophore; assay: TR-FRET competition against acceptor-labeled A2M in whole blood, singleplex calibrators, 5 min; A2M 4000 ug/mL (FIG. 2I)
[14] = target: anti-A2M antibody (MAB) labeled with a donor fluorophore; assay: TR-FRET competition against acceptor-labeled A2M in whole blood, singleplex calibrators, 30 min; A2M 1000 ug/mL (FIG. 2I)
[15] = target: anti-A2M antibody (MAB) labeled with a donor fluorophore; assay: TR-FRET competition against acceptor-labeled A2M in whole blood, singleplex calibrators, 30 min; A2M 2000 ug/mL (FIG. 2I)
[16] = target: anti-A2M antibody (MAB) labeled with a donor fluorophore; assay: TR-FRET competition against acceptor-labeled A2M in whole blood, singleplex calibrators, 30 min; A2M 4000 ug/mL (FIG. 2I)
[17] = target: anti-A2M antibody (MAB) labeled with a donor fluorophore; assay: TR-FRET competition against acceptor-labeled A2M in whole blood, multiplex calibrators, 5 min; A2M 0 ug/mL, reference (FIG. 2I)
[18] = target: anti-A2M antibody (MAB) labeled with a donor fluorophore; assay: TR-FRET competition against acceptor-labeled A2M in whole blood, multiplex calibrators, 30 min; A2M 0 ug/mL, reference (FIG. 2I)
[19] = target: anti-A2M antibody (MAB) labeled with a donor fluorophore; assay: TR-FRET competition against acceptor-labeled A2M in whole blood, singleplex calibrators, 5 min; A2M 0 ug/mL, reference (FIG. 2I)
[20] = target: anti-A2M antibody (MAB) labeled with a donor fluorophore; assay: TR-FRET competition against acceptor-labeled A2M in whole blood, singleplex calibrators, 30 min; A2M 0 ug/mL, reference (FIG. 2I)
[21] = target: anti-A2M antibody (MAB) labeled with a donor fluorophore; assay: TR-FRET competition against acceptor-labeled A2M in whole blood, multiplex calibrators (VCAM-1 + A2M), 5 min; A2M 200 ug/mL (FIG. 2I)
[22] = target: anti-A2M antibody (MAB) labeled with a donor fluorophore; assay: TR-FRET competition against acceptor-labeled A2M in whole blood, multiplex calibrators (VCAM-1 + A2M), 5 min; A2M 500 ug/mL (FIG. 2I)
[23] = target: anti-A2M antibody (MAB) labeled with a donor fluorophore; assay: TR-FRET competition against acceptor-labeled A2M in whole blood, multiplex calibrators (VCAM-1 + A2M), 30 min; A2M 200 ug/mL (FIG. 2I)
[24] = target: anti-A2M antibody (MAB) labeled with a donor fluorophore; assay: TR-FRET competition against acceptor-labeled A2M in whole blood, multiplex calibrators (VCAM-1 + A2M), 30 min; A2M 500 ug/mL (FIG. 2I)
[25] = target: anti-A2M antibody (MAB) labeled with a donor fluorophore; assay: TR-FRET competition against acceptor-labeled A2M in whole blood, multiplex calibrators (VCAM-1 + A2M), 5 min; A2M 1000 ug/mL (FIG. 2I)
[26] = target: anti-A2M antibody (MAB) labeled with a donor fluorophore; assay: TR-FRET competition against acceptor-labeled A2M in whole blood, multiplex calibrators (VCAM-1 + A2M), 5 min; A2M 2000 ug/mL (FIG. 2I)
[27] = target: anti-A2M antibody (MAB) labeled with a donor fluorophore; assay: TR-FRET competition against acceptor-labeled A2M in whole blood, multiplex calibrators (VCAM-1 + A2M), 5 min; A2M 4000 ug/mL (FIG. 2I)
[28] = target: anti-A2M antibody (MAB) labeled with a donor fluorophore; assay: TR-FRET competition against acceptor-labeled A2M in whole blood, multiplex calibrators (VCAM-1 + A2M), 30 min; A2M 1000 ug/mL (FIG. 2I)
[29] = target: anti-A2M antibody (MAB) labeled with a donor fluorophore; assay: TR-FRET competition against acceptor-labeled A2M in whole blood, multiplex calibrators (VCAM-1 + A2M), 30 min; A2M 2000 ug/mL (FIG. 2I)
[30] = target: anti-A2M antibody (MAB) labeled with a donor fluorophore; assay: TR-FRET competition against acceptor-labeled A2M in whole blood, multiplex calibrators (VCAM-1 + A2M), 30 min; A2M 4000 ug/mL (FIG. 2I)

F/B Mean [1]: 0.905
F/B Mean [2]: 0.795
F/B Mean [3]: 0.666
F/B Mean [4]: 0.532
F/B Mean [5]: 0.393
F/B Mean [6]: 1
FRET signal relative to zero calibrator (quantity not given) [7]: 0.88
FRET signal relative to zero calibrator (quantity not given) [8]: 0.72
FRET signal relative to zero calibrator (quantity not given) [9]: 0.88
FRET signal relative to zero calibrator (quantity not given) [10]: 0.71
FRET signal relative to zero calibrator (quantity not given) [11]: 0.58
FRET signal relative to zero calibrator (quantity not given) [12]: 0.43
FRET signal relative to zero calibrator (quantity not given) [13]: 0.33
FRET signal relative to zero calibrator (quantity not given) [14]: 0.59
FRET signal relative to zero calibrator (quantity not given) [15]: 0.43
FRET signal relative to zero calibrator (quantity not given) [16]: 0.33
FRET signal relative to zero calibrator (quantity not given) [17]: 1
FRET signal relative to zero calibrator (quantity not given) [18]: 1
FRET signal relative to zero calibrator (quantity not given) [19]: 1
FRET signal relative to zero calibrator (quantity not given) [20]: 1
FRET signal relative to zero calibrator (quantity not given) [21]: 0.83
FRET signal relative to zero calibrator (quantity not given) [22]: 0.71
FRET signal relative to zero calibrator (quantity not given) [23]: 0.87
FRET signal relative to zero calibrator (quantity not given) [24]: 0.74
FRET signal relative to zero calibrator (quantity not given) [25]: 0.58
FRET signal relative to zero calibrator (quantity not given) [26]: 0.45
FRET signal relative to zero calibrator (quantity not given) [27]: 0.34
FRET signal relative to zero calibrator (quantity not given) [28]: 0.56
FRET signal relative to zero calibrator (quantity not given) [29]: 0.45
FRET signal relative to zero calibrator (quantity not given) [30]: 0.33
Substance: A2M (alpha-2-macroglobulin), unlabeled analyte / calibrator
